In publication PMC5725494, “Cell cycle-dependent phosphorylation regulates RECQL4 pathway choice and ubiquitination in DNA double-strand break repair”:
Positions count from the first letter of the chain named.

What was measured:
Assay in all cases: EMSA; 25 or 50 nM protein, 0.5 nM DNA; 5 mM MnCl2, no ATP; 25 mM HEPES pH 7.4, 5 mM MnCl2, 1 mM DTT, 100 ng/mL BSA, 5% glycerol, no ATP; 10 min at 37 °C; 10% native PAGE
Conditions in all cases: protein: recombinant; tags: 3xFLAG; label: 5'-32P on Mix3-19 (S13); fork: 19 bp duplex with 5' T15 arm (strand 1) and 3' T15 arm (strand 2)
RECQL4 RQ4-2D = biological target: T1, RECQL4 RQ4-2D (UniProt O94761 1-1208, S89D;S251D)
T1 sequence: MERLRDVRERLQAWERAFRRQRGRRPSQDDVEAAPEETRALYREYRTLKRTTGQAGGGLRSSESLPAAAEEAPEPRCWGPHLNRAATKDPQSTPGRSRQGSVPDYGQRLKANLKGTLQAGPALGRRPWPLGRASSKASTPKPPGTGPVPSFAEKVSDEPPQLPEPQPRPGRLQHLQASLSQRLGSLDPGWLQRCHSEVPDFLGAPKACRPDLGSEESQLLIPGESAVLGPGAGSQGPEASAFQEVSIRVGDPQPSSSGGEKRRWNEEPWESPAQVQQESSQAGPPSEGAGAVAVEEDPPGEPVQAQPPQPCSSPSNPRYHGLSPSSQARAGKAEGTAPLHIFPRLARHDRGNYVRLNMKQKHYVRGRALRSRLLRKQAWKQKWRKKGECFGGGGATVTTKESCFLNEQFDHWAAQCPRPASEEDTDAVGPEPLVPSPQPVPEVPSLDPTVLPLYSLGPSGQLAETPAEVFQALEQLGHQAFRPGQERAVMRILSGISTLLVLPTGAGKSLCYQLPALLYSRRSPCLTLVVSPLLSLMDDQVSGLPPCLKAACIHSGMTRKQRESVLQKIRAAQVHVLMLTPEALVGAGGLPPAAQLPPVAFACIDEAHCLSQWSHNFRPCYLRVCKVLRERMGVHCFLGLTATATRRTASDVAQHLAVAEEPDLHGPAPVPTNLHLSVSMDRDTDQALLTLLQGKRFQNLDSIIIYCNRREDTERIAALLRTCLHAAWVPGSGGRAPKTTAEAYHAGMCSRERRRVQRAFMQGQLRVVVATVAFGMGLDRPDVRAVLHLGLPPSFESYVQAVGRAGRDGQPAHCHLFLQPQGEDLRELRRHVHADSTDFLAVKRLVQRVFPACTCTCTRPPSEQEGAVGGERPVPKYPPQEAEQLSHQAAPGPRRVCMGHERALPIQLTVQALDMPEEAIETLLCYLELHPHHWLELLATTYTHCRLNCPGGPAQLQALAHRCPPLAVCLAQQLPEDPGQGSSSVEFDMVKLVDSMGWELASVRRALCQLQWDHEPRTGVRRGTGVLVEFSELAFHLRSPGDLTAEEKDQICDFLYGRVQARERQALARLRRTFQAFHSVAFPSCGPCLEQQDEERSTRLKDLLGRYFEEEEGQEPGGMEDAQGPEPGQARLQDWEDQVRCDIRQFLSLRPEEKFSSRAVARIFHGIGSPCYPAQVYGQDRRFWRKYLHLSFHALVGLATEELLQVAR

RECQL4 WT (RQ4Wt) = biological target: T2, RECQL4 WT (RQ4Wt) (UniProt O94761 1-1208)
T2 sequence: T1 sequence with D89S, D251S

RECQL4 RQ4-2A = biological target: T3, RECQL4 RQ4-2A (UniProt O94761 1-1208, S89A;S251A)
T3 sequence: T1 sequence with D89A, D251A

Measured: binding signal

B1: Mix3/4-19 Y-shaped duplex (dsDNA)
DNA 1: TTTTTTTTTTTTTTTGAGTGTGGTGTACATGCAC
DNA 2: GTGCATGTACACCACACTCTTTTTTTTTTTTTTT
~40 % DNA shifted: RECQL4 RQ4-2D | RECQL4 WT (RQ4Wt) | RECQL4 RQ4-2A
